Laboratory results taken from patent US7262177B2, “Conjugates of glycosylated/galactosylated peptide, bifunctional linker, and nucleotidic monomers/polymers, and related compositions and methods of use” (priority 2000, dated 2007).
“And” between values parts separate entries of the source, which are not always exact repeats. Identical values can stand only once.

Columns and labels:
[1] = Serum stability of po 1-mer conjugate, HPLC method (b), column 2; format: in vitro ADME; conditions: 37° C.; for Average Peak area / Trial Peak area: human serum
Protocol: Studies were carried out at physiological conditions. The analyses were accomplished using reversed-phase HPLC and PAGE methods. The raw data are presented in table format (Tables 1, 2 and 3). The serum half-life calculated is t1/2=1/k (0.693), derived from the [A]=[A0]e^−kt, where [A0] is the original amount of substrate, [A] is the measured substrate level, t is time (min), and k is the first-order rate constant.
(b) Reaction Conditions: 100 μl of human serum were added to 20 nmoles of HPLc purified po 1-mer Conjugate and incubated at 37° C. for allotted time periods (0 min, 15 min, 60 min, 120 min, 240 min). HPLC gradient: 100% Buffer A (0.05M NaxPO4 (pH 5.8) in 2% CH3CN) for 5 min, then 2% CH3CN to 50% CH3CN over the next 20 min. Column 2: flow 4.7 ml/min, Rainin Semi-Preparative C18 reversed-phase column (10 mm i.d.×250 mm L) (Table 2).

Hep G2 cells = assay: Inhibition of Hep G2 cellular proliferation (cell counting), 1-mer conjugates; format: cell-based, human
Protocol: Hep G2 cells were seeded into a 48-well plate in RPMI supplemented with 10% FCS at a density of 5×10^4 cells/well. Cells were then allowed to incubate at 37° C., 95% RH, 5% CO2 for 24 hrs. After this incubation period, the maintainence medium was aspirated and cells were treated with various concentrations of neoglycoconjugate in 200 μl of RPMI supplemented with 10% FCS. Control wells were treated with 200 μl of RPMI+10% FCS alone. At 0, 24, 48, 72 and 96 hrs, six wells for each condition were washed twice with 0.5 ml of DPBS and treated with 0.5 ml of trypsin (0.25%; prepared in HBSS with 1.0 mM EDTA). Cell number for each condition were determined a using a Coulter electronic cell counter. In all cases, the extent of inhibition of proliferation increased as a function of time. […] Therefore, the type of linkage that conjugates the nucleotide analog to YEE(ahGalNAc)3 influences the ability to inhibit proliferation.

[2] = test system: Hep G2 human hepatoma xenografts; assay: Bioefficacy against human hepatoma (Hep G2) xenografts in nude mice; format: in vivo, CD-1 nude mice
From the text: Xenotransplanted tumors have been previously shown to be responsive to 5FU chemotherapy as assayed by direct physical measurement of the tumor (Houghton et al., Biochem. Pharmacol., 36, 1285-1289 (1987)), histological changes and biochemical measurements, such as alpha-fetoprotein (AFP) levels (Lemoine et al., Pathol. Biol. (Paris), 47, 903-910 (1999)) and thymidylate synthase levels (Peters et al., J. Clin Oncol., 12, 2035-2042 (1994)). The xenograft tumors in nude mice are a widely used model for tumor studies that allows for direct measurement of the growth of human tumors. Male CD-1 nude mice (6-8 weeks old, 20-22 g in weight) were used for these bioefficacy studies. An injection of 10^8 Hep G2 cells was made subcutaneously into the subcapsular region of each mouse. Mice were observed daily for tumor formation. After tumors emerged, they were measured twice a week in two dimensions with sliding calipers. When the tumors reached a weight of 100 mg in weight as determined by the formula: [(weight, mg)=(length (mm)×width (mm))^2/2], treatment was initiated (Geran et al., Cancer Chemother. Rep., 3, 51-61 (1972)). Initially, mice were treated with 10 mg/kg dose once/week for 8 weeks. Subsequently, separate cohorts of mice were treated with 15 mg/kg weekly for 8 weeks and finally 10 mg/kg twice weekly for 8 weeks. The impact of treatment upon tumor growth was judged by direct measurement as described above. In addition, tumor progression was tracked by serological measurements, such as AFP levels. AFP levels were assayed weekly following each injection. Blood was taken retro-orbitally from each mouse. AFP levels were assayed immunochemically, using kits supplied by Abbott Laboratories (Waukegan, Ill.) and based on the methods of Wang et al. (Cancer Res., 50, 869s-872s (1990)). Measurements of AFP levels were intended to complement direct physical measurement as an indicator of tumor progression. Generally, serum AFP levels behave as if they reflect tumor mass. However, it should be noted that moderately raised AFP levels have been found in some patients with uncomplicated liver disease. Despite these false positives, serum AFP levels have been successfully used to monitor response to therapy (Johnson, J. Gastroent Hepatol., 14 (Suppl.), s32-s36 (1999)) especially in the tumor-bearing nude mice, where the human tumor is the only source of human AFP. Results from such assays provide an early indication of HCC potential before it is manifested as physical tumor growth. The data generated by the above experiments should aid in the derivation of starting doses for larger mammal testing and subsequent clinical studies.

[3] = 10 mg/kg twice weekly, after 3 weeks

CC(=O)N[C@H]1[C@H](OCCCCCCNC(=O)CC[C@H](NC(=O)CC[C@H](NC(=O)[C@H](Cc2ccc(O)cc2)NC(=O)C2CCC(CN3C(=O)CC(SCCCCCCOP(=O)(O)OC[C@H]4O[C@@H](n5cc(F)c(=O)[nH]c5=O)C[C@@H]4O)C3=O)CC2)C(=O)NCCCCCCO[C@@H]2O[C@H](CO)[C@H](O)[C@H](O)[C@H]2NC(C)=O)C(=O)NCCCCCCO[C@@H]2O[C@H](CO)[C@H](O)[C@H](O)[C@H]2NC(C)=O)O[C@H](CO)[C@H](O)[C@@H]1O (some centres unmarked) [po 1-mer, YEE(ahGalNAc)3-SMCC-poFU]
Average Peak area ([1]; 0 min): 13.57
Trial Peak area ([1]; 0 min, listed as po 1-mer Conjugate): 13.07 and 12.68 and 14.97
Average Peak area ([1]; 15 min): 14.86
Trial Peak area ([1]; 15 min): 14.86
Average Peak area ([1]; 60 min): 14.22
Trial Peak area ([1]; 60 min): 14.22
Average Peak area ([1]; 120 min): 11.96
Trial Peak area ([1]; 120 min): 11.96
Average Peak area ([1]; 240 min): 9.727
Trial Peak area ([1]; 240 min): 9.727
half-life at 200 µM ([1]; human, serum, HPLC (b), read-out: serum t1/2): 6.78 h
inhibition of proliferation (Hep G2 cells; 1 μM, compared to untreated control, listed as po-linked conjugate): 64%
more active than the ps-linked conjugate (Hep G2 cells; in vitro proliferation of Hep G2 cells): approximately 30%
body weight [2, 3]: moderate reduction in body weight
tumor progression [2, 3]: significant reduction in tumor progression
tumors ([2]; 10 mg/kg twice weekly, after 6 weeks): beyond detection
effect on tumor growth ([2]; 10 mg/kg weekly for 8 weeks): mild inhibition of tumor growth
histological analysis of tumors ([2]; 10 mg/kg weekly, after 8 weeks): reduced mitotic index and increased amount of necrotic tissue
average tumor weight ([2]; 10 mg/kg weekly, at 8 weeks (saline control about 15 g)): about 7 g
body weight (clinical toxicity) ([2]; 15 mg/kg weekly): steady weight gain equivalent to that of a non-tumor bearing mice
tumor burden ([2]; 15 mg/kg weekly, after 2 additional injections (7)): tumor burden was eradicated in one mouse and the tumor size was reduced in the others
tumor progression ([2]; 15 mg/kg weekly, after 5 injections): almost static
histological analysis of tumor ([2]; 15 mg/kg weekly, after treatment): very low mitotic index and extensive necrosis
